Among the data in US11708413B2 (priority 2016, dated 2023) are Bmax and Kd values, retold here.

Experiment [1] deals with T1, CD74 on SUP-B15 (ALL) cells (Homo sapiens, UniProt P04233).
T1 construct: endogenous in cells; host or cells: RPMI-6666, SU-DHL-6, ARD, ARP-1, RPMI-8226, OPM-2, BDCM, SUP-B15, JVM-13, K562
T1 sequence (P04233 1-296): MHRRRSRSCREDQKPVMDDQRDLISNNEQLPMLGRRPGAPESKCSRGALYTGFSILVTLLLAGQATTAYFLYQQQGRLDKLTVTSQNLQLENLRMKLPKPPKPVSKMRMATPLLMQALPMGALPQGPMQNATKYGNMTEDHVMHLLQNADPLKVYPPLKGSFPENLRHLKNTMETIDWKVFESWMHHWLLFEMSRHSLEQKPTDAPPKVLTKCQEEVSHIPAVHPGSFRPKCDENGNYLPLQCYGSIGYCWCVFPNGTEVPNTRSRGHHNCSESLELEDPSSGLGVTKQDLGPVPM
As to the kind of experiment: Cell binding assay (FACS), SUP-B15 (ALL). The settings on record: NB = no binding. On the procedure:
(§1) Cell lines tested included B-lymphoma, multiple myeloma, and leukemia cells.
(§2) Cell lines were maintained in RPMI, high glucose (Cellgro-Mediatech; Manassas, Va.) supplemented with 20% heat-inactivated fetal bovine serum (Hyclone; Thermo Scientific; Waltham, Mass.), 2 mM glutamax (Invitrogen; Carlsbad, Calif.) and 1×Pencillin/streptomycin (Cellgro-Mediatech; Manassas, Va.). Cells were harvested and re-suspended in FACS buffer (DPBS buffer supplemented with 1% bovine serum albumin). […] Cells were washed twice with ice-cold FACS buffer and incubated with 5 ug/ml Alexa 647 labeled donkey anti-human IgG antibody (Jackson Immune-Research) on ice for another 60 mins. Unstained cells and cells stained with secondary antibody alone were used as controls. Samples were then washed twice using FACS buffer and analyzed using a BD FACS Canto system. Mean fluorescence intensities were fitted using non-linear regression analysis with one site specific binding equation on GraphPad Prism. Data was expressed as geometric mean fluorescent intensity vs. antibody concentration in nM.
(§3) Each of Conjugates A-F was evaluated for the ability to bind and kill cells expressing CD74. Cell lines tested included B-lymphoma, multiple myeloma, and leukemia cells. Controls included unconjugated anti-CD74 antibody.

The target in experiment [2] is T2, CD74 on JVM-13 (CLL) cells (Homo sapiens, UniProt P04233).
T2 construct: endogenous in cells; host or cells: RPMI-6666, SU-DHL-6, ARD, ARP-1, RPMI-8226, OPM-2, BDCM, SUP-B15, JVM-13, K562
T2 sequence (P04233 1-296): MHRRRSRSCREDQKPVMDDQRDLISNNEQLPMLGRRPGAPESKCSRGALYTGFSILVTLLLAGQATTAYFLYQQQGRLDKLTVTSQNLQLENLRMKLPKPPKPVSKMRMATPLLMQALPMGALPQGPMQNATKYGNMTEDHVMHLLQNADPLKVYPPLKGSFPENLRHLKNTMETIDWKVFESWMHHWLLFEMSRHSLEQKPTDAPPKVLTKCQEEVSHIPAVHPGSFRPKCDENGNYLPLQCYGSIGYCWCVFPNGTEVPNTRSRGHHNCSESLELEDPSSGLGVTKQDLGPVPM
As to the kind of experiment: Cell binding assay (FACS), JVM-13 (CLL). Conditions: NB = no binding. On the procedure:
as §1, §2, §3

Another experiment deals with T3, CD74 on ARP-1 (MM) cells (Homo sapiens, UniProt P04233).
T3 construct: endogenous in cells; host or cells: RPMI-6666, SU-DHL-6, ARD, ARP-1, RPMI-8226, OPM-2, BDCM, SUP-B15, JVM-13, K562
T3 sequence (P04233 1-296): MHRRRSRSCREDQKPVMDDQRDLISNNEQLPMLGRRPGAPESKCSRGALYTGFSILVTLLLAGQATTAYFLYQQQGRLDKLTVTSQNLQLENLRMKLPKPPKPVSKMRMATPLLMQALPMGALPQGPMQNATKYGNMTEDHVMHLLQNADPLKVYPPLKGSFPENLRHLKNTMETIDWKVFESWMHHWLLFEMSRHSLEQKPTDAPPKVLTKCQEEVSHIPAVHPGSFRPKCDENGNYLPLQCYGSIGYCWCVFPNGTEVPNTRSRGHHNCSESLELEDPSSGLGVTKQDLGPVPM
The experiment in a line: Cell binding assay (FACS), ARP-1 (MM). The settings on record: geometric mean fluorescent intensity, NB = no binding. Here is the method: as §1
as §2, with “Cells” for “Cell lines were maintained in RPMI, high glucose (Cellgro-Mediatech; Manassas, Va.) supplemented with 20% heat-inactivated fetal bovine serum (Hyclone; Thermo Scientific; Waltham, Mass.), 2 mM glutamax (Invitrogen; Carlsbad, Calif.) and 1×Pencillin/streptomycin (Cellgro-Mediatech; Manassas, Va.). Cells”
as §1

The target in a further experiment is T4, CD74 on BDCM (AML) cells (Homo sapiens, UniProt P04233).
T4 construct: endogenous in cells; host or cells: RPMI-6666, SU-DHL-6, ARD, ARP-1, RPMI-8226, OPM-2, BDCM, SUP-B15, JVM-13, K562
T4 sequence (P04233 1-296): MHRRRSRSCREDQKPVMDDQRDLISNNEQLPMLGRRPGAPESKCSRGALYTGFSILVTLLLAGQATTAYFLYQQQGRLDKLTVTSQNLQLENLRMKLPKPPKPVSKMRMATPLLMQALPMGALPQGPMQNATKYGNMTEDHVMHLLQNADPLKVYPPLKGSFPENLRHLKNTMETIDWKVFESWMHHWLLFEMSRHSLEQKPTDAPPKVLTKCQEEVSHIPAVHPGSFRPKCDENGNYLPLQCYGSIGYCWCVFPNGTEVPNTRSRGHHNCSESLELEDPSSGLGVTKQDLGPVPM
As to the kind of experiment: Cell binding assay (FACS), BDCM (AML). The settings on record: NB = no binding. On the procedure: as §1, §2, §3

In experiment [3] the target is T5, CD74 on RPMI-8226 (MM) cells (Homo sapiens, UniProt P04233).
T5 construct: endogenous in cells; host or cells: RPMI-8226
T5 sequence (P04233 1-296): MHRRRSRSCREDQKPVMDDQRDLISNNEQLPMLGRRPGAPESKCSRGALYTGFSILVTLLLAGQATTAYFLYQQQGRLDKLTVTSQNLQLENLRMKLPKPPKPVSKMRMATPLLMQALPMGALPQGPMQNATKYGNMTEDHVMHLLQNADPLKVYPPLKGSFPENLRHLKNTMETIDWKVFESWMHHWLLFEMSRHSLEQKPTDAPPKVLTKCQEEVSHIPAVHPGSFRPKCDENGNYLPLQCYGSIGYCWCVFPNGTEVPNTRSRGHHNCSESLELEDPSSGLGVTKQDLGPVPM
As to the kind of experiment: Cell binding assay (FACS), RPMI-8226 (MM). Conditions: NB = no binding. On the procedure: as §1, §2, §3

For experiment [4], the target named is T6, CD74 on SU-DHL-6 (NHL) cells (Homo sapiens, UniProt P04233).
T6 construct: endogenous in cells; host or cells: SU-DHL-6
T6 sequence (P04233 1-296): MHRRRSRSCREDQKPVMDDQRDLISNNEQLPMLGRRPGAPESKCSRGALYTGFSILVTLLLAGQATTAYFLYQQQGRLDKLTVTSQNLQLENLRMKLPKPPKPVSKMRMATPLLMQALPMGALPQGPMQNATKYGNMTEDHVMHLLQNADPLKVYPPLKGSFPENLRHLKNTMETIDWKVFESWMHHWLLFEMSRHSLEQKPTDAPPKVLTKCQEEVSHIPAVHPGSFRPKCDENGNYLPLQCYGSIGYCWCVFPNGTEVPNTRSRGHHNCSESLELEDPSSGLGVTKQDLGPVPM
As to the kind of experiment: Cell binding assay (FACS), SU-DHL-6 (NHL). Conditions: NB = no binding. Here is the method:
as §1, §2, §3

Experiment [5] deals with T7, CD74 on RPMI-6666 (HL) cells (Homo sapiens, UniProt P04233).
T7 construct: endogenous in cells; host or cells: RPMI-6666, SU-DHL-6, ARD, ARP-1, RPMI-8226, OPM-2, BDCM, SUP-B15, JVM-13, K562
T7 sequence (P04233 1-296): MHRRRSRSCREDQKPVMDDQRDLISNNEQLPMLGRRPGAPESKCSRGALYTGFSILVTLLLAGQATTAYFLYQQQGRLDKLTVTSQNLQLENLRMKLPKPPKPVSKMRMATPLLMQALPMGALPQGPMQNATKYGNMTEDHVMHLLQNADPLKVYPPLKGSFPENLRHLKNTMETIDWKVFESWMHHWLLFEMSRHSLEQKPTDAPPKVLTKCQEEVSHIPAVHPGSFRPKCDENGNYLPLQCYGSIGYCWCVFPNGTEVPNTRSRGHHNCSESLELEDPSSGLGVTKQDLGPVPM
The experiment in a line: Cell binding assay (FACS), RPMI-6666 (HL). Conditions: NB = no binding. Here is the method: as §1, §2, §3

For a further experiment, the target named is T8, CD74 on ARD (MM) cells (Homo sapiens, UniProt P04233).
T8 construct: endogenous in cells; host or cells: RPMI-6666, SU-DHL-6, ARD, ARP-1, RPMI-8226, OPM-2, BDCM, SUP-B15, JVM-13, K562
T8 sequence (P04233 1-296): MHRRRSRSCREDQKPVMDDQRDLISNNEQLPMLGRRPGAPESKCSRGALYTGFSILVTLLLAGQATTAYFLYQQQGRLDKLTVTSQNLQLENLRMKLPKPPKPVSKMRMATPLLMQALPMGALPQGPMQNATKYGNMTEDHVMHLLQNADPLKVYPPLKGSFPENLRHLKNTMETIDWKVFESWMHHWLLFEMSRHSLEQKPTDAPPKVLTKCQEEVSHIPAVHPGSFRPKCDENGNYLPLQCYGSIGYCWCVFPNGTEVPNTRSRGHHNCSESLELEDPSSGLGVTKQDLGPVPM
The experiment in a line: Cell binding assay (FACS), ARD (MM). Conditions: NB = no binding. Here is the method:
as §1, §2, §3

[6] abbreviates: FACS, geometric mean fluorescent intensity.

B1: anti-CD74 (antibody, V domains shown)
VH: QVQLVESGGGVVQPGRSLRLSCAASGFNFSDYGMHWVRQAPGKGLEWVAVIWYDGSISYYADSVKGRFTISRDNSKNTLYLQMNSLRAEDTAVYYCARGGTVEHGAVYGTDVWGQGTTVTVSS
VL: DIQMTQSPSSVSASVGDRVTITCRASQGIGSWLAWYQQKPGKAPKLLIYAADRLQSGVPSRFSGSGSGTDFTLTISSLQPEDFATYYCQQYHTYPLTFGGGTKVEIK
Regarding B1, the Bmax is listed as 680 in experiment [1] (setting [6]); 447 in experiment [2] (setting [6]); 341 in the experiment with CD74 on ARP-1 (MM) cells; 3059 with CD74 on BDCM (AML) cells (setting [6]); 119 in experiment [3] (setting [6]); 1565 in experiment [4] (setting [6]). For the same molecule, the Bmax is on record as 3879 in experiment [5] (setting [6]) and 190 with CD74 on ARD (MM) cells (setting [6]). Further, the Kd in experiment [1] (cell binding) turned out to be 3.5 nM; in experiment [2] (cell binding), 2.5 nM; in the experiment with CD74 on BDCM (AML) cells (cell binding), 4.5 nM; in experiment [3] (cell binding), 3.6 nM; in experiment [4] (cell binding), 2 nM; in experiment [5] (cell binding), 2.3 nM. Moreover, in the experiment with CD74 on ARD (MM) cells (cell binding), the dissociation constant (Kd) was 2.6 nM.

One may read the Kd as a measure of binding affinity in units of concentration.
